Measured values: patent US20090042786A1

Molecular target: human Factor X activated (human) (UniProt P00742)
Assay: cell-based or functional assay

Chain of UniProt P00742 (P00742 235-488 limits assumed): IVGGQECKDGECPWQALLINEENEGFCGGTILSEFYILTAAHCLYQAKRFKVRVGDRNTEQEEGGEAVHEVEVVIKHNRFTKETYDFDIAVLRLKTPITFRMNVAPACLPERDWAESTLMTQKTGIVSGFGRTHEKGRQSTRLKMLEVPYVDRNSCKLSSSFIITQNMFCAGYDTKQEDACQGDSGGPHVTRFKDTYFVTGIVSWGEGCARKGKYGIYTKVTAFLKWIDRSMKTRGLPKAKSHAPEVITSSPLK

Substance: Amblyomin-X recombinant protein
- inhibition of the amidolytic activity of human Factor X activated (dose at which inhibition is seen): 5 to 10 µM
